According to PMC2696559:

Molecular target: histone H2b (human, UniProt Q16778 1-126)
Test: EMSA

GGAGGAGGAGGAGGAG (ssDNA) [16-mer oligonucleotide]
binding result: binds
